Target: T1, VapC4 toxin (Saci_1813) with a C-terminal histidine tag (Sulfolobus acidocaldarius DSM639, UniProt Q4J7W2 1-140, FITC (Alexa-488) fluorescent probe, site not stated, F/P ratio approximately 0.5 (in the FRET assay only))
T1 construct: also called Saci VapC4; pAG153; not shown: His tag, C-terminal, kept
T1 sequence (looked up): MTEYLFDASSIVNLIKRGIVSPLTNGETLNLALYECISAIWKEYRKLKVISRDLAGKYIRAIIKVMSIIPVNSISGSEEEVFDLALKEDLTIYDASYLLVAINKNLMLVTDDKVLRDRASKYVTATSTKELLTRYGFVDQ
Assay: FRET or BRET; FITC-labelled VapC4 (100 nM, donor) titrated with TRITC-labelled VapB4 (25-2,000 nM, acceptor); excitation 495 nm, FITC emission at 520 nm, 60°C; fit to a hyperbolic binding equation
Conditions: both partners purified

B1: VapB4 antitoxin (Saci_1812) with a C-terminal histidine tag (natural protein, Sulfolobus acidocaldarius DSM639, UniProt Q4J7W4 1-77, looked up)
chain: MDSSGYVTISAKVPRELKELMDKYGIKPGPVIRKALEEEVRRRAIQELEKELKDLKEKSQISDEDVARLIREDRESR
modifications: TRITC (Alexa-532) fluorescent probe, site not stated, F/P ratio approximately 0.5 (in the FRET assay only)
notes: Unlabelled in the RNase neutralisation assay, TRITC-labelled in FRET; also called pAG154; source: E. coli BL21(DE3)-RIL, purified (Ni2+-NTA, dialysis)
How did the Kd turn out when B1 was run?
Its Kd is 40 ± 2.2 nM.

Reference: publication PMC11633383, “Role of VapBC4 toxin-antitoxin system of Sulfolobus acidocaldarius in heat stress adaptation” (mBio, 2024)
